Data on 1 molecule can be found in patent US20110190477A1 (G2 INFLAMMATION, published 2011).

The target of one assay is T1, human C5a receptor (human, UniProt P21730 1-350).
T1 chain: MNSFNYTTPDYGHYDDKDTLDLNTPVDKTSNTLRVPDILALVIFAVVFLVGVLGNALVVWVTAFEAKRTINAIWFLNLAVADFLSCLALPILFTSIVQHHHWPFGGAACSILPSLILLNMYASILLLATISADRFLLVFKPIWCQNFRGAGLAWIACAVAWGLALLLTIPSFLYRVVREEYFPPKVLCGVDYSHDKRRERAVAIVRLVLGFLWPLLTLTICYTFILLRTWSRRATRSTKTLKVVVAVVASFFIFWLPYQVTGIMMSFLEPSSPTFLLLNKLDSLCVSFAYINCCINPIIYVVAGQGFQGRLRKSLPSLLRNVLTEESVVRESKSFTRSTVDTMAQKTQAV
The experiment in a line: cell-based or functional assay.

Assay [1] has as its target T2, chimeric receptor 2. mHHH (mouse; human, UniProt P30993 1-39).
T2 construct: range 1-39; Transiently expressed on mouse L1.2 cells
T2 sequence: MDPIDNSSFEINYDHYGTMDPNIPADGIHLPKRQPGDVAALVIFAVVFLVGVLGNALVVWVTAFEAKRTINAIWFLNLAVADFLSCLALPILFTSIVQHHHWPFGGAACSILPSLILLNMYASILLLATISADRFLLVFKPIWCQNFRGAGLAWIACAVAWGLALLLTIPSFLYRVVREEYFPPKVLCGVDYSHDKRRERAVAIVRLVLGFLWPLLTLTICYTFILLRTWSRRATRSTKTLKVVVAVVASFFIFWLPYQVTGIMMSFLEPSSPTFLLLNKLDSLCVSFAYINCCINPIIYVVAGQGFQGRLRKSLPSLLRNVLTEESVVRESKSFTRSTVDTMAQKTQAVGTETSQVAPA
Briefly: flow cytometry on transiently transfected L1.2 cells. Here is the method: A series of chimeric receptors comprising segments of mouse and human C5aR were constructed to identify the region of the C5a receptor that the antibodies bound. […] Each recombinant vector (5 μg diluted in DMEM) encoding a different chimeric receptor was transfected into 5×10⁵ mouse L1.2 cells using Lipofectamine 2000 (Invitrogen). Cells were grown in DMEM or RPMI (Invitrogen) plus 10% foetal bovine serum (Hyclone). After 24 hours or 48 hours, cells were harvested by centrifugation at 1,500 rpm for 5 min and resuspended in FACS buffer (phosphate buffered saline plus 2% bovine serum albumin). For staining with hAb-Q, 0.5×10⁵ transfected cells were incubated with 5 or 10 μg/ml antibody in a volume of 50 μl per well at 4° C. for 20 minutes. Cells were pelleted as above and rinsed 3 times with 150 μl FACS buffer before addition of 50 μl FITC-conjugated anti-human IgG diluted 1:200 or 1:300 (Sigma, F1641). This mix was incubated for 20 min at 4° C. before cells were pelleted, washed with FACS buffer 3 times and finally resuspended in 150-200 μl FACS buffer. Samples were analysed on a FACS Calibur (BD Biosciences).
To confirm that the humanised antibody hAb-Q, which was derived from mouse mAb 7F3 by CDR grafting, and therefore should contain the same antigen-binding site, had the same staining pattern as 7F3, transiently transfected cells expressing the different chimeric human/mouse C5aR were stained with hAb-Q and analysed by flow cytometry. The pattern of staining by hAb-Q was identical to that observed with 7F3. There was no staining by the secondary antibody (anti-hIgG-FITC) alone.

B1: humanized anti-C5aR antibody hAb-Q (antibody, human IgG4 S228P, kappa)
light: DVVMTQSPLSLPVTLGEPASISCRSSQSLVHSNGNTYLHWYLQKPGQSPQLLIYKVSNRFSGVPDRFSGSGSGTDFTLKISRVEAEDVGVYFCSQSTLVPLTFGQGTKLEIKRTVAAPSVFIFPPSDEQLKSGTASVVCLLNNFYPREAKVQWKVDNALQSGNSQESVTEQDSKDSTYSLSSTLTLSKADYEKHKVYACEVTHQGLSSPVTKSFNRGEC
heavy: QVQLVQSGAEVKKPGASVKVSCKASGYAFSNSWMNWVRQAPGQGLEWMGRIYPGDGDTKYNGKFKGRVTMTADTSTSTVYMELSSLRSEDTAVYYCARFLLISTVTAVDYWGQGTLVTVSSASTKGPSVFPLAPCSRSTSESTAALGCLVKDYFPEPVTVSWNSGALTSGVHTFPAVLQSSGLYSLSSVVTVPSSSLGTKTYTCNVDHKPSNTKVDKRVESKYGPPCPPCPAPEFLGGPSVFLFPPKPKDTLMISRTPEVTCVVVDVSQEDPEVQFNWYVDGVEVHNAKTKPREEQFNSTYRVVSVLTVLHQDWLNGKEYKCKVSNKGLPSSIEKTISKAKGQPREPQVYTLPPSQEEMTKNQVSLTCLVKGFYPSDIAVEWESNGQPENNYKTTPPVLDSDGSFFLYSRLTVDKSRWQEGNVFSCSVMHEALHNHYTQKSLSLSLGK
notes: IgG4 with the Ser228Pro mutation; also called antibody Q; anti-C5aR ab
In the case of B1, in the assay with human C5a receptor, the “Ab conc. tested but not effective at blocking Ca2+-flux (human neutrophils, 1 nM C5a)” value was 0.5 µg/mL. Further, the binding result in assay [1] is “binds”.
